Source: FireProtDB (doi:10.1021/bi00072a011)
“And” between values parts separate entries of the source, which are not always exact repeats. Equal values may be shown once.

Conditions: Salmonella typhimurium (strain LT2 / SGSC1412 / ATCC 700720); pH 7.8; 25 °C; Urea; CD; Potassium phosphate 10 mM; transition: 3; whole UniProt chain shown

B1: Tryptophan synthase alpha chain wild type, P00929 (protein)
chain: MERYENLFAQLNDRREGAFVPFVTLGDPGIEQSLKIIDTLIDAGADALELGVPFSDPLADGPTIQNANLRAFAAGVTPAQCFEMLALIREKHPTIPIGLLMYANLVFNNGIDAFYARCEQVGVDSVLVADVPVEESAPFRQAALRHNIAPIFICPPNADDDLLRQVASYGRGYTYLLSRSGVTGAENRGALPLHHLIEKLKEYHAAPALQGFGISSPEQVSAAVRAGAAGAISGSAIVKIIEKNLASPKQMLAELRSFVSAMKAASRA
Q: With B1 as the protein, how does the denaturant m value read?
A: Its denaturant m value is 2.7 kcal/mol/M and 1.6 kcal/mol/M.

Q: What about the “denaturant midpoint (higher = more stable)” value of the same protein?
A: The value was 2.75 M and 3.63 M.

Q: And the unfolding free energy?
A: Its unfolding free energy is 7.4 kcal/mol and 5.8 kcal/mol.
